Experimental data as given in US20200283478A1 (Genentech, published 2020).
Bridge positions count the residues as written; N and C are the ends. Ends that are not written are not given here. * marks the point of attachment. Fmoc = O=C(OCC1c2ccccc2-c2ccccc21)*

Experiments:
[1] = target: T1, proprotein convertase subtilisin/kexin type 9 (PCSK9) (human, UniProt Q8NBP7 31-692); assay: phage spot ELISA
T1 construct: His-tagged full-length PCSK9 in TR-FRET and SPR, biotinylated in phage ELISA; secreted protein is autoprocessed (prodomain plus catalytic/CRD chain starting at S153); also called rec.PCSK9; His-PCSK9
T1 sequence (Q8NBP7 other isoform, or with tags, fused parts or gaps limits assumed): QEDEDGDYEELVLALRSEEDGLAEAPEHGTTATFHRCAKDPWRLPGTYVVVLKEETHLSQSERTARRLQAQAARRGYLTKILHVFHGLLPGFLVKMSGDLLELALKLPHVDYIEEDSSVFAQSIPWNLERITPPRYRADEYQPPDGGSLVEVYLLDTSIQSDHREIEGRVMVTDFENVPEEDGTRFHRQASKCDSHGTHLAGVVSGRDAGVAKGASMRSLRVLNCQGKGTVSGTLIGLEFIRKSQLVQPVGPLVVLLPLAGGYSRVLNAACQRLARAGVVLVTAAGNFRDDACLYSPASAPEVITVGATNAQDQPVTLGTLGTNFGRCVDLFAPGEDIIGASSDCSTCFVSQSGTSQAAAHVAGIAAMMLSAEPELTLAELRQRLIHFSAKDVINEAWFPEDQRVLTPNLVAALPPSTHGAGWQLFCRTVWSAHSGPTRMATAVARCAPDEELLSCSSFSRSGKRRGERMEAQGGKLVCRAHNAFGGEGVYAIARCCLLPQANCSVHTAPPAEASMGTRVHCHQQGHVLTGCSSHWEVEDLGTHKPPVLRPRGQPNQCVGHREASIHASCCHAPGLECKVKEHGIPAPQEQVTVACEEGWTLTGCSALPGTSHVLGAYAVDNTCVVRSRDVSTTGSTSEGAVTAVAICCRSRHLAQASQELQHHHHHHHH

[2] = target: T2, PCSK9Δhelix (human, Chemically biotinylated in the phage ELISAs; the site is not given.); assay: phage spot ELISA
T2 construct: construct M1-Q692 with engineered TEV site, cleaved by TEV; also called His-PCSK9Δhelix; open groove PCSK9Δhelix
T2 sequence (prodomain, as listed by the source mutant limits assumed, chain 1 of 2): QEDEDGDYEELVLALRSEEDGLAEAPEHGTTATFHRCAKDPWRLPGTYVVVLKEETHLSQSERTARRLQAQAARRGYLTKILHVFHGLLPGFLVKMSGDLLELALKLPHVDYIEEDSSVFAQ
T2 sequence (chain, as listed by the source mutant limits assumed, chain 2 of 2): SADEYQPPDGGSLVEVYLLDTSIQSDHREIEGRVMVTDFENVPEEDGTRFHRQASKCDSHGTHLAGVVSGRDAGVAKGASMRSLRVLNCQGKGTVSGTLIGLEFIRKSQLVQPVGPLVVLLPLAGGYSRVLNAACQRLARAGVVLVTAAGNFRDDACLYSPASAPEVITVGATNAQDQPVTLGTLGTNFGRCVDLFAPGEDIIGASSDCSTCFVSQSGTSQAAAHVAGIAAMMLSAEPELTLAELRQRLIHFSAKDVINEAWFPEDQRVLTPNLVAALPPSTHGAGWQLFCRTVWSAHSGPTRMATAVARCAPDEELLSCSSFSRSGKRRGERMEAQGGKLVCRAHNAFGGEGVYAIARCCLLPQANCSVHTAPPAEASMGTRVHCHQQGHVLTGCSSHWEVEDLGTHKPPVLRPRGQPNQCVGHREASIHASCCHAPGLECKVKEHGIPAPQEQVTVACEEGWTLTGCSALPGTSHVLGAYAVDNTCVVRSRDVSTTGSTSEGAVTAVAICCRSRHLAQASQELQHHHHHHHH

[3] = target: T3, His-tagged PCSK9Δhelix (human, UniProt Q8NBP7 31-152; Q8NBP7 168-692); assay: TR-FRET competition (PCSK9Δhelix/Ab20 assay); competitor Ab20
T3 construct: Human PCSK9 M1-Q692 with an engineered TEV site, cut by TEV protease; new N-terminus of the catalytic domain is S-A168; also called His-PCSK9Δhelix; not shown: His tag
T3 sequence (Q8NBP7 31-152, stated change not applied, chain 1 of 2): as the sequence (prodomain, as listed by the source mutant limits assumed, chain 1 of 2) above
T3 sequence (Q8NBP7 other isoform, or with tags, fused parts or gaps mutant, chain 2 of 2): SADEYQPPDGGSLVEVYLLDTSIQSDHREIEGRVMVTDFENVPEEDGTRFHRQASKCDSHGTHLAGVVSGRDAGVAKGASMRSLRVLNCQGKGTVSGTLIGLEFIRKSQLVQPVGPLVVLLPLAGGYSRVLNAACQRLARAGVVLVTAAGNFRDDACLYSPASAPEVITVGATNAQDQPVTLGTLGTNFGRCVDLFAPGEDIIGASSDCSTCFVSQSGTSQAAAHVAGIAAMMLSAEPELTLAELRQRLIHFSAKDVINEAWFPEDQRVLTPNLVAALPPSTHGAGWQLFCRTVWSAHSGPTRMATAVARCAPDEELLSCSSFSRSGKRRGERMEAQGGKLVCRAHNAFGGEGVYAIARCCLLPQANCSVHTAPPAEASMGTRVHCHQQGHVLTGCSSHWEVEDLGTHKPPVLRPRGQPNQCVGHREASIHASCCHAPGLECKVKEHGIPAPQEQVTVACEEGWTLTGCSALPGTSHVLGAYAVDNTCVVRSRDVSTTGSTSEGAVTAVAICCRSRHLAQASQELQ

[4] = target: T4, His-tagged, full-length PCSK9 (human, UniProt Q8NBP7 31-692); assay: TR-FRET competition (PCSK9/EGF(A) assay); competitor EGF(A)-Fc;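 also: proximity signal from anti-His APC on PCSK9 paired with anti-Fc europium on the Fc ligand, read as normalized TR-FRET ratio across compound dilutions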
T4 construct: secreted PCSK9 is autocatalytically cleaved into prodomain and catalytic domain + CRD (from S153), which stay associated; also called His-PCSK9; proprotein convertase subtilisin/kexin type 9; not shown: His tag
T4 sequence (Q8NBP7 31-692 limits assumed): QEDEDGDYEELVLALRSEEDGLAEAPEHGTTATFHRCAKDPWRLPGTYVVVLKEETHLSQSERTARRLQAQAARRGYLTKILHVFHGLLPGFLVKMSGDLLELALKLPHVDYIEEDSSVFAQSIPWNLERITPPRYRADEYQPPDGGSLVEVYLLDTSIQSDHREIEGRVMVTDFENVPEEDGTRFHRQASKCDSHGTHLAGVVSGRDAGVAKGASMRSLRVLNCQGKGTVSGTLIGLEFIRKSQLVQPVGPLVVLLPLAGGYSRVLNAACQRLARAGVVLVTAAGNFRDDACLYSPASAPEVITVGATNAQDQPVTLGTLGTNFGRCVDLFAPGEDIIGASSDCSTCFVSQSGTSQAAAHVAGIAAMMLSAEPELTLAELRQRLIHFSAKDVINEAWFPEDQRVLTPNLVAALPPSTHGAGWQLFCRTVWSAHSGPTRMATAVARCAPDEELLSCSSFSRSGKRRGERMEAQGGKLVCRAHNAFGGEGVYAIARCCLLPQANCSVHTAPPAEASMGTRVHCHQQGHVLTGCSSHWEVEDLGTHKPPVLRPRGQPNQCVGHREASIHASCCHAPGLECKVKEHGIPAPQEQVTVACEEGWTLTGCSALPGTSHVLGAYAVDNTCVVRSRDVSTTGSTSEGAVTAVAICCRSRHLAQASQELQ

SGPRTYLRGLVD [SEQ ID NO 366]
ELISA [1]: 0.355 | s/n [1]: 3.1 | ELISA [2]: 0.375 | s/n [2]: 3.44

SGNCWSSLRGICENLG [SEQ ID NO 367]
ELISA [1]: 0.609 | s/n [1]: 1.47 | ELISA [2]: 0.601 | s/n [2]: 5.2

SGMVYVDRGVRVFT [SEQ ID NO 368]
ELISA [1]: 0.893 | s/n [1]: 8.5 | ELISA [2]: 1.01 | s/n [2]: 10.2

SGGCVKYRGSVSCQESKT [SEQ ID NO 369]
ELISA [1]: 0.373 | s/n [1]: 3.32 | ELISA [2]: 0.378 | s/n [2]: 3.37

SGEHQFYSYRGVDVYR [SEQ ID NO 370]
ELISA [1]: 0.458 | s/n [1]: 1.45 | ELISA [2]: 0.461 | s/n [2]: 3.71

SGACLNHFVSGNMIRC [SEQ ID NO 371]
ELISA [1]: 0.607 | s/n [1]: 5.19 | ELISA [2]: 0.649 | s/n [2]: 5.55

SGSYRGAWSVFGGSTD [SEQ ID NO 372]
ELISA [1]: 1.09 | s/n [1]: 5.15 | ELISA [2]: 1.04 | s/n [2]: 7.68

SGCWTYLRGGCSVT [SEQ ID NO 373]
ELISA [1]: 0.487 | s/n [1]: 4.39 | ELISA [2]: 0.569 | s/n [2]: 5.37

SGTPEMPAML [SEQ ID NO 374]
ELISA [1]: 3.01 | s/n [1]: 5.74 | ELISA [2]: 2.25 | s/n [2]: 8.06

SGLAPTVSDS [SEQ ID NO 375]
ELISA [1]: 0.119 | s/n [1]: 1.23 | ELISA [2]: 0.55 | s/n [2]: 4.33

SGDTRSQLSH [SEQ ID NO 376]
ELISA [1]: 2.57 | s/n [1]: 11.9 | ELISA [2]: 1.24 | s/n [2]: 11.3

SGAGKLDLSG [SEQ ID NO 377]
ELISA [1]: 2.87 | s/n [1]: 11.1 | ELISA [2]: 1.75 | s/n [2]: 4.17

SGVCSDHYIGGKEVRC [SEQ ID NO 378]
ELISA [1]: 1.12 | s/n [1]: 6.19

SGNALWNHDRLT [SEQ ID NO 379]
ELISA [1]: 0.591 | s/n [1]: 6.42 | ELISA [2]: 0.665 | s/n [2]: 7.07

SGRNGSGYINRGIEIW [SEQ ID NO 380]
ELISA [1]: 0.447 | s/n [1]: 3.85 | ELISA [2]: 0.638 | s/n [2]: 5.5

SGHASKGMVLSG [SEQ ID NO 381]
ELISA [1]: 2.49 | s/n [1]: 15.5 | ELISA [2]: 1.64 | s/n [2]: 7.52

B1: Compound 65 (Ac-WCLWNLKRIGSQCEY-NH2) (peptide)
peptide: Ac-WCLWNLKRIGSQCEY-NH2
modifications: disulfide 2-13
SMILES: CC[C@H](C)[C@@H]1NC(=O)[C@H](CCCNC(=N)N)NC(=O)[C@H](CCCCN)NC(=O)[C@H](CC(C)C)NC(=O)[C@H](CC(N)=O)NC(=O)[C@H](Cc2c[nH]c3ccccc23)NC(=O)[C@H](CC(C)C)NC(=O)[C@@H](NC(=O)[C@H](Cc2c[nH]c3ccccc23)NC(C)=O)CSSC[C@@H](C(=O)N[C@@H](CCC(=O)O)C(=O)N[C@@H](Cc2ccc(O)cc2)C(N)=O)NC(=O)[C@H](CCC(N)=O)NC(=O)[C@H](CO)NC(=O)CNC1=O
IC50 [3]: 7.1 µM | IC50 [4]: > 50 µM

B2: Compound 95 (Ac-FCLWNLKRIGSQCEY-NH2) (peptide)
peptide: Ac-FCLWNLKRIGSQCEY-NH2
modifications: disulfide 2-13
SMILES: CC[C@H](C)[C@@H]1NC(=O)[C@H](CCCNC(=N)N)NC(=O)[C@H](CCCCN)NC(=O)[C@H](CC(C)C)NC(=O)[C@H](CC(N)=O)NC(=O)[C@H](Cc2c[nH]c3ccccc23)NC(=O)[C@H](CC(C)C)NC(=O)[C@@H](NC(=O)[C@H](Cc2ccccc2)NC(C)=O)CSSC[C@@H](C(=O)N[C@@H](CCC(=O)O)C(=O)N[C@@H](Cc2ccc(O)cc2)C(N)=O)NC(=O)[C@H](CCC(N)=O)NC(=O)[C@H](CO)NC(=O)CNC1=O
IC50 [3]: 12.7 µM | IC50 [4]: > 50 µM

B3: Compound 89 (WCLWNLKRIGSQCWF-NH2) (peptide)
peptide: WCLWNLKRIGSQCWF-NH2
modifications: disulfide 2-13; N-terminus assumed
SMILES: CC[C@H](C)[C@@H]1NC(=O)[C@H](CCCNC(=N)N)NC(=O)[C@H](CCCCN)NC(=O)[C@H](CC(C)C)NC(=O)[C@H](CC(N)=O)NC(=O)[C@H](Cc2c[nH]c3ccccc23)NC(=O)[C@H](CC(C)C)NC(=O)[C@@H](NC(=O)[C@@H](N)Cc2c[nH]c3ccccc23)CSSC[C@@H](C(=O)N[C@@H](Cc2c[nH]c3ccccc23)C(=O)N[C@@H](Cc2ccccc2)C(N)=O)NC(=O)[C@H](CCC(N)=O)NC(=O)[C@H](CO)NC(=O)CNC1=O
IC50 [3]: 2.98 µM | IC50 [4]: 6.9 µM

B4: Compound 87 (Ac-GCLWNLKRIGSQCWF-NH2) (peptide)
peptide: Ac-GCLWNLKRIGSQCWF-NH2
modifications: disulfide 2-13
SMILES: CC[C@H](C)[C@@H]1NC(=O)[C@H](CCCNC(=N)N)NC(=O)[C@H](CCCCN)NC(=O)[C@H](CC(C)C)NC(=O)[C@H](CC(N)=O)NC(=O)[C@H](Cc2c[nH]c3ccccc23)NC(=O)[C@H](CC(C)C)NC(=O)[C@@H](NC(=O)CNC(C)=O)CSSC[C@@H](C(=O)N[C@@H](Cc2c[nH]c3ccccc23)C(=O)N[C@@H](Cc2ccccc2)C(N)=O)NC(=O)[C@H](CCC(N)=O)NC(=O)[C@H](CO)NC(=O)CNC1=O
IC50 [3]: 9.53 µM | IC50 [4]: > 50 µM

B5: Compound 88 (Ac-FCLWNLARIGSQCWF-NH2) (peptide)
peptide: Ac-FCLWNLARIGSQCWF-NH2
modifications: disulfide 2-13
SMILES: CC[C@H](C)[C@@H]1NC(=O)[C@H](CCCNC(=N)N)NC(=O)[C@H](C)NC(=O)[C@H](CC(C)C)NC(=O)[C@H](CC(N)=O)NC(=O)[C@H](Cc2c[nH]c3ccccc23)NC(=O)[C@H](CC(C)C)NC(=O)[C@@H](NC(=O)[C@H](Cc2ccccc2)NC(C)=O)CSSC[C@@H](C(=O)N[C@@H](Cc2c[nH]c3ccccc23)C(=O)N[C@@H](Cc2ccccc2)C(N)=O)NC(=O)[C@H](CCC(N)=O)NC(=O)[C@H](CO)NC(=O)CNC1=O
IC50 [3]: 7.46 µM | IC50 [4]: 17.9 µM

Ac-WCLWNLKRIGSQCWF (disulfide 2-13) [Compound 90 (Ac-WCLWNLKRIGSQCWF)]
IC50 [3]: 7.38 µM | IC50 [4]: 29.2 µM

B6: Compound 66 (WCLWNLKRIGSQCWF) (peptide)
peptide: H-WCLWNLKRIGSQCWF-OH
modifications: disulfide 2-13
SMILES: CC[C@H](C)[C@@H]1NC(=O)[C@H](CCCNC(=N)N)NC(=O)[C@H](CCCCN)NC(=O)[C@H](CC(C)C)NC(=O)[C@H](CC(N)=O)NC(=O)[C@H](Cc2c[nH]c3ccccc23)NC(=O)[C@H](CC(C)C)NC(=O)[C@@H](NC(=O)[C@@H](N)Cc2c[nH]c3ccccc23)CSSC[C@@H](C(=O)N[C@@H](Cc2c[nH]c3ccccc23)C(=O)N[C@@H](Cc2ccccc2)C(=O)O)NC(=O)[C@H](CCC(N)=O)NC(=O)[C@H](CO)NC(=O)CNC1=O
IC50 [3]: 12 µM | IC50 [4]: 31.3 µM

B7: Compound 40 (Ac-GSG-CWNLKRIGSQGCW-NH2) (peptide)
peptide: Ac-GSGCWNLKRIGSQGCW-NH2
modifications: disulfide 4-15
SMILES: CC[C@H](C)[C@@H]1NC(=O)[C@H](CCCNC(=N)N)NC(=O)[C@H](CCCCN)NC(=O)[C@H](CC(C)C)NC(=O)[C@H](CC(N)=O)NC(=O)[C@H](Cc2c[nH]c3ccccc23)NC(=O)[C@@H](NC(=O)CNC(=O)[C@H](CO)NC(=O)CNC(C)=O)CSSC[C@@H](C(=O)N[C@@H](Cc2c[nH]c3ccccc23)C(N)=O)NC(=O)CNC(=O)[C@H](CCC(N)=O)NC(=O)[C@H](CO)NC(=O)CNC1=O
IC50 [3]: 2.41 µM | IC50 [4]: 5.96 µM

B8: Compound 39 (Ac-CWNLKRIGSQGCW-NH2) (peptide)
peptide: Ac-CWNLKRIGSQGCW-NH2
modifications: disulfide 1-12
SMILES: CC[C@H](C)[C@@H]1NC(=O)[C@H](CCCNC(=N)N)NC(=O)[C@H](CCCCN)NC(=O)[C@H](CC(C)C)NC(=O)[C@H](CC(N)=O)NC(=O)[C@H](Cc2c[nH]c3ccccc23)NC(=O)[C@@H](NC(C)=O)CSSC[C@@H](C(=O)N[C@@H](Cc2c[nH]c3ccccc23)C(N)=O)NC(=O)CNC(=O)[C@H](CCC(N)=O)NC(=O)[C@H](CO)NC(=O)CNC1=O
IC50 [3]: 37.5 µM | IC50 [4]: > 50 µM

B9: Compound 98 (Fmoc-GSG-CWNLKRIGSQGC-NH2) (peptide)
peptide: Fmoc-GSGCWNLKRIGSQGC-NH2
modifications: disulfide 4-15
SMILES: CC[C@H](C)[C@@H]1NC(=O)[C@H](CCCNC(=N)N)NC(=O)[C@H](CCCCN)NC(=O)[C@H](CC(C)C)NC(=O)[C@H](CC(N)=O)NC(=O)[C@H](Cc2c[nH]c3ccccc23)NC(=O)[C@@H](NC(=O)CNC(=O)[C@H](CO)NC(=O)CNC(=O)OCC2c3ccccc3-c3ccccc32)CSSC[C@@H](C(N)=O)NC(=O)CNC(=O)[C@H](CCC(N)=O)NC(=O)[C@H](CO)NC(=O)CNC1=O
IC50 [3]: 3.6 µM | IC50 [4]: 37.6 µM
